Laboratory results from the supplement of paper PMC10724198.
± gives the standard deviation of the averaged measurements.

Experiments:
Saccharomyces cerevisiae [1] = test: protein stability index of tFT-peptide fusion (C-terminal peptide) (PSI (0-1 scale)); higher = more stable (slower turnover)
Protocol: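 MPS profiling in S. cerevisiae of the tFT-X12 degron library: putative degron peptides plus stable controls, 12 aa, fused to the C-terminus of a sfGFP-mCherry timer. Cells are FACS-sorted into 8 mCherry/sfGFP bins and deep-sequenced. PSI runs from 0 (unstable) to 1 (stable). Backgrounds are wild type, das1Δ and doa10Δ at 30 °C, and wild type, das1Δ, cdc34-1 and cdc53-1 at 37 °C; 2-3 technical replicates each.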

Saccharomyces cerevisiae [2] = test: as above; details: genetic background: wild type; temperature: 30 C
[3] = genetic background: cdc34-1, temperature: 37 C
[4] = genetic background: cdc53-1, temperature: 37 C
[5] = genetic background: das1 deletion, temperature: 30 C
[6] = genetic background: das1 deletion, temperature: 37 C
[7] = genetic background: doa10 deletion, temperature: 30 C
[8] = genetic background: wild type, temperature: 30 C
[9] = genetic background: wild type, temperature: 37 C
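Further: PSI is a weighted mean of sequencing reads over stability bins, variants kept only with over 10 reads, mCherry proximal and sfGFP distal, peptide attached via GGGS linker.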

Row | Sequence | protein stability index (Saccharomyces cerevisiae [1]; [3]) | protein stability index (Saccharomyces cerevisiae [1]; [4]) | protein stability index (Saccharomyces cerevisiae [1]; [5]) | protein stability index (Saccharomyces cerevisiae [1]; [6]) | protein stability index (Saccharomyces cerevisiae [1]; [7]) | protein stability index (Saccharomyces cerevisiae [1]; [8]) | protein stability index (Saccharomyces cerevisiae [1]; [9]) | protein stability index (Saccharomyces cerevisiae [2])
1 | LQVPTLRLFVFF | 0.584 ± 0.029 | 0.724 ± 0.033 | 0.577 ± 0.02 | 0.698 ± 0.021 | 0.197 ± 0.0017 | 0.224 ± 0.012 | 0.398 ± 0.026 | 0.3 ± 0.0049
2 | LRMSLLVFLLFA | 0.312 ± 0.03 | 0.407 ± 0.033 | 0.261 ± 0.033 | 0.4419 ± 0.0016 | 0.249 ± 0.021 | 0.231 ± 0.025 | 0.399 ± 0.0072 | 0.314 ± 0.054
3 | LRQKIIYWWLWL | 0.478 ± 0.019 | 0.488 ± 0.021 | 0.472 ± 0.03 | 0.613 ± 0.008 | 0.255 ± 0.011 | 0.245 ± 0.011 | 0.3523 ± 0.001 | 0.313 ± 0.0047
4 | LRVLSVVRLSVW | 0.479 ± 0.0067 | 0.545 ± 0.023 | 0.407 ± 0.034 | 0.545 ± 0.011 | 0.382 ± 0.02 | 0.4 ± 0.025 | 0.54567 ± 0.00028 | 0.468 ± 0.055
5 | LSARVFCFWFFS | 0.586 ± 0.018 | 0.635 ± 0.011 | 0.549 ± 0.05 | 0.677 ± 0.028 | 0.187 ± 0.017 | 0.201 ± 0.011 | 0.2852 ± 0.0022 | 0.31 ± 0.024
6 | LSFLCFSTVLHC | 0.557 ± 0.0096 | 0.606 ± 0.019 | 0.511 ± 0.017 | 0.58 ± 0.019 | 0.46 ± 0.022 | 0.462 ± 0.03 | 0.54302 ± 0.00015 | 0.503 ± 0.073
7 | LSFLFFRLCSFF | 0.487 ± 0.066 | 0.551 ± 0.0081 | 0.568 ± 0.034 | 0.668 ± 0.021 | 0.157 ± 0.0029 | 0.158 ± 0.017 | 0.184 ± 0.04 | 0.203 ± 0.061
8 | LSLLCFVASVVA | 0.168 ± 0.0083 | 0.195 ± 0.005 | 0.238 ± 0.027 | 0.292 ± 0.015 | 0.1585 ± 0.00028 | 0.194 ± 0.021 | 0.224 ± 0.013 | 0.275 ± 0.016
9 | LSLVIFIFLYCR | 0.0945 ± 0.016 | 0.123 ± 0.037 | 0.179 ± 0.0092 | 0.234 ± 0.0042 | 0.27 ± 0.033 | 0.169 ± 0.023 | 0.205 ± 0.027 | 0.227 ± 0.053
10 | LSLWPIFGIIYC | 0.46 ± 0.035 | 0.4637 ± 0.0007 | 0.357 ± 0.024 | 0.516 ± 0.013 | 0.332 ± 0.011 | 0.364 ± 0.019 | 0.513 ± 0.019 | 0.4508 ± 0.0019
11 | LSPPPLSFPFSA | 0.704 ± 0.0072 | 0.753 ± 0.02 | 0.623 ± 0.012 | 0.737 ± 0.011 | 0.643 ± 0.017 | 0.666 ± 0.024 | 0.7118 ± 0.0069 | 0.136 ± 0.021
12 | LSVVVLVLCVLL | 0.285 ± 0.028 | 0.403 ± 0.02 | 0.279 ± 0.04 | 0.42 ± 0.027 | 0.268 ± 0.023 | 0.283 ± 0.023 | 0.428 ± 0.082 | 0.353 ± 0.033
13 | LVGYCGAWACVV | 0.642 ± 0.034 | 0.677 ± 0.021 | 0.558 ± 0.023 | 0.674 ± 0.018 | 0.244 ± 0.011 | 0.283 ± 0.027 | 0.501 ± 0.025 | 0.4 ± 0.036
14 | LVLCCGFWFRAV | 0.619 ± 0.046 | 0.606 ± 0.038 | 0.464 ± 0.031 | 0.612 ± 0.0063 | 0.27 ± 0.0049 | 0.286 ± 0.029 | 0.501 ± 0.02 | 0.381 ± 0.025
15 | LVLGVEVCFVLG | 0.102 ± 0.0073 | 0.16 ± 0.011 | 0.177 ± 0.033 | 0.296 ± 0.0065 | 0.147 ± 0.012 | 0.168 ± 0.032 | 0.246 ± 0.022 | 0.273 ± 0.015
16 | LVPYLWWLVFAL | 0.189 ± 0.015 | 0.125 ± 0.023 | 0.192 ± 0.028 | 0.319 ± 0.046 | 0.202 ± 0.011 | 0.143 ± 0.019 | 0.24 ± 0.026 | 0.274 ± 0.027
17 | LVVFGLVLSLLL | 0.449 ± 0.013 | 0.477 ± 0.006 | 0.376 ± 0.022 | 0.5066 ± 0.0043 | 0.356 ± 0.008 | 0.374 ± 0.022 | 0.495 ± 0.03 | 0.469 ± 0.025
18 | LVVWASLVRVEG | 0.271 ± 0.033 | 0.3235 ± 0.003 | 0.252 ± 0.037 | 0.4191 ± 0.0033 | 0.2034 ± 0.00022 | 0.255 ± 0.02 | 0.389 ± 0.0079 | 0.33 ± 0.032
19 | LVWDLFRCFSML | 0.582 ± 0.018 | 0.7165 ± 0.001 | 0.647 ± 0.032 | 0.759 ± 0.038 | 0.23 ± 0.0054 | 0.228 ± 0.021 | 0.351 ± 0.029 | 0.242 ± 0.026
